Test results taken from the Immune Epitope Database (IEDB).

How the values were obtained:
HLA-B*07:02 [1] = test: IEDB peptide-MHC binding, purified MHC/competitive/fluorescence; ≥ and ≤ were set here for values at or beyond the usual limits of such assays
HLA-B*57:01 = test: IEDB peptide-MHC binding, purified MHC/competitive/radioactivity; filed as Kd, often an IC50 or EC50 that approximates it; ≥ and ≤ were set here for values at or beyond the usual limits of such assays; details: source organism: Dengue virus 1 Brazil/97-11/1997
HLA-A*80:01 = test: IEDB peptide-MHC binding, purified MHC/direct/fluorescence; filed as Kd, often an IC50 or EC50 that approximates it; ≥ and ≤ were set here for values at or beyond the usual limits of such assays
HLA-A*26:03 = test: as above; details: source organism: Cryptosporidium parvum Iowa II
HLA-A*26:02 = test: as above; details: source organism: Geobacillus sp. WCH70
HLA-B*15:01 = test: IEDB peptide-MHC binding, purified MHC/competitive/fluorescence; filed as Kd, often an IC50 or EC50 that approximates it; ≥ and ≤ were set here for values at or beyond the usual limits of such assays; details: source organism: Shigella flexneri 2a str. 301
HLA-B*07:02 [2] = test: as above
HLA-B*35:01 = test: as above; details: source organism: Shigella flexneri 2a str. 301
HLA-A*01:01 [3] = test: IEDB peptide-MHC binding, purified MHC/direct/fluorescence; filed as Kd, often an IC50 or EC50 that approximates it; ≥ and ≤ were set here for values at or beyond the usual limits of such assays
HLA-B*45:06 = test: IEDB peptide-MHC binding, purified MHC/competitive/fluorescence; filed as Kd, often an IC50 or EC50 that approximates it; ≥ and ≤ were set here for values at or beyond the usual limits of such assays
HLA-A*68:23 = test: as above; details: source organism: Toxoplasma gondii
HLA-A*32:15 = test: as above; details: source organism: Toxoplasma gondii
HLA-A*03:01 = test: as above; details: source organism: Toxoplasma gondii
HLA-B*83:01 = test: as above
HLA-B*15:42 = test: as above
HLA-A*01:01 [4] = test: IEDB peptide-MHC binding, purified MHC/competitive/fluorescence; ≥ and ≤ were set here for values at or beyond the usual limits of such assays
HLA-C*06:02 = test: IEDB peptide-MHC binding, purified MHC/direct/fluorescence; filed as Kd, often an IC50 or EC50 that approximates it; ≥ and ≤ were set here for values at or beyond the usual limits of such assays
HLA-C*12:03 = test: as above
HLA-C*14:02 = test: as above
HLA-C*15:02 = test: as above
HLA-B*48:01 = test: IEDB peptide-MHC binding, purified MHC/competitive/fluorescence; filed as Kd, often an IC50 or EC50 that approximates it; ≥ and ≤ were set here for values at or beyond the usual limits of such assays
HLA-B*40:01 = test: IEDB peptide-MHC binding, purified MHC/direct/fluorescence; filed as Kd, often an IC50 or EC50 that approximates it; ≥ and ≤ were set here for values at or beyond the usual limits of such assays; details: source organism: Homo sapiens
HLA-B*27:05 = test: as above; details: source organism: Homo sapiens
HLA-B*27:20 = test: IEDB peptide-MHC binding, purified MHC/competitive/fluorescence; filed as Kd, often an IC50 or EC50 that approximates it; ≥ and ≤ were set here for values at or beyond the usual limits of such assays
HLA-C*03:03 = test: IEDB peptide-MHC binding, purified MHC/direct/fluorescence; filed as Kd, often an IC50 or EC50 that approximates it; ≥ and ≤ were set here for values at or beyond the usual limits of such assays
HLA-B*08:02 = test: as above; details: source organism: Bacillus anthracis str. Sterne
HLA-B*08:01 = test: as above; details: source organism: Bacillus anthracis str. Sterne
HLA-A*02:03 = test: IEDB peptide-MHC binding, purified MHC/competitive/radioactivity; filed as Kd, often an IC50 or EC50 that approximates it; ≥ and ≤ were set here for values at or beyond the usual limits of such assays; details: source organism: Dengue virus 1 Brazil/97-11/1997
HLA-A*02:17 = test: as above; details: source organism: Dengue virus 1 Singapore/S275/1990
HLA-A*24:02 = test: as above; details: source organism: Dengue virus 1 Brazil/97-11/1997
HLA-A*02:11 = test: IEDB peptide-MHC binding, purified MHC/direct/fluorescence; filed as Kd, often an IC50 or EC50 that approximates it; ≥ and ≤ were set here for values at or beyond the usual limits of such assays; details: source organism: dengue virus type 1
HLA-C*08:02 = test: as above
HLA-A*02:19 = test: as above; details: source organism: dengue virus type 1
HLA-A*02:12 = test: as above; details: source organism: dengue virus type 1
HLA-C*07:02 = test: as above; details: source organism: Mycobacterium tuberculosis str. Haarlem
[5] = source organism: Zaire ebolavirus
[6] = source organism: dengue virus type 1
[7] = source organism: West Nile virus
[8] = source organism: Toxoplasma gondii
[9] = source organism: Vibrio parahaemolyticus
[10] = source organism: Listeria monocytogenes EGD-e
[11] = source organism: Pan troglodytes
[12] = source organism: Cryptosporidium parvum Iowa II
[13] = source organism: Bacillus anthracis str. A2012
[14] = source organism: Mycobacterium tuberculosis str. Haarlem

APDGIRGFP
IC50 (HLA-B*07:02 [1]; [5]): 23400 nM

ESDPEGALW
Kd (HLA-B*57:01): 391 nM
Kd (HLA-A*80:01; [6]): ≥ 20000 nM

ETRYSWAIL
Kd (HLA-A*26:03): 454 nM

FTWPWMKLF
Kd (HLA-A*26:02): 469 nM

GPCPGDYAF
IC50 (HLA-B*07:02 [1]; source organism: Sudan ebolavirus): ≥ 722000 nM

KPVGWAMSF
Kd (HLA-B*15:01): 4000 nM
Kd (HLA-B*07:02 [2]; source organism: Shigella flexneri 2a str. 301): 11.9 nM
Kd (HLA-B*35:01): 0.4 nM

MPRQKIIGPL
Kd (HLA-B*07:02 [2]; source organism: Influenza A virus (A/Swine/Colorado/23619/99(H3N2))): 6.6 nM

MSPHRVPNY
Kd (HLA-A*01:01 [3]; [7]): ≥ 20000 nM
Kd (HLA-A*80:01; [7]): ≥ 20000 nM

MTMLIKAFK
Kd (HLA-B*45:06; [8]): ≥ 5000 nM
Kd (HLA-A*68:23): 4.5 nM
Kd (HLA-A*32:15): 194 nM
Kd (HLA-A*03:01): 7.7 nM
Kd (HLA-B*83:01; [8]): ≥ 5000 nM
Kd (HLA-B*15:42; [8]): ≥ 5000 nM

MTPGRGLSK
Kd (HLA-A*01:01 [3]; [9]): ≥ 20000 nM
Kd (HLA-A*80:01; [9]): ≥ 20000 nM

PDDGSYGEY
IC50 (HLA-A*01:01 [4]; [5]): ≥ 277000 nM

RGDLETLGY
IC50 (HLA-A*01:01 [4]; source organism: Vaccinia virus WR): 9250 nM

RMMGKTNPL
Kd (HLA-C*06:02; [10]): ≥ 20000 nM
Kd (HLA-C*12:03; [10]): 156 nM
Kd (HLA-C*14:02; [10]): ≤ 1 nM
Kd (HLA-C*15:02; [10]): 16 nM
Kd (HLA-B*48:01; [10]): 97.4 nM

RRHWGGNVL
Kd (HLA-B*40:01): ≥ 43000 nM
Kd (HLA-B*27:05): 2300 nM
Kd (HLA-B*45:06; [11]): ≥ 5000 nM
Kd (HLA-B*83:01; [11]): ≥ 5000 nM
Kd (HLA-B*27:20; [11]): 0.2 nM
Kd (HLA-B*15:42; [11]): ≥ 5000 nM

TSDGKEYTY
IC50 (HLA-A*01:01 [4]; [5]): 3450 nM

WMYNIQPYL
Kd (HLA-C*12:03; [12]): 454 nM
Kd (HLA-C*03:03; [12]): 83 nM
Kd (HLA-B*48:01; [12]): 34.7 nM

YMKERFTVL
Kd (HLA-C*06:02; [13]): 149 nM
Kd (HLA-B*08:02): 282 nM
Kd (HLA-C*14:02; [13]): 173 nM
Kd (HLA-B*08:01): 15 nM
Kd (HLA-C*15:02; [13]): 1500 nM
Kd (HLA-B*45:06; [13]): ≥ 5000 nM
Kd (HLA-B*83:01; [13]): ≥ 5000 nM
Kd (HLA-B*27:20; [13]): 22.6 nM
Kd (HLA-B*15:42; [13]): ≥ 5000 nM

YMPSVVETL
Kd (HLA-A*02:03): 15 nM
Kd (HLA-A*02:17): 14.6 nM
Kd (HLA-A*24:02): 1010 nM
Kd (HLA-A*02:11): ≤ 1 nM
Kd (HLA-C*08:02; [6]): ≥ 20000 nM
Kd (HLA-A*02:19): 36 nM
Kd (HLA-A*02:12): 9 nM

YVYPDNLPV
Kd (HLA-C*08:02; [14]): 78 nM
Kd (HLA-C*03:03; [14]): 2 nM
Kd (HLA-C*07:02): 2170 nM
